# The supplement of paper PMC12764529
# ± gives the half width of the 95% confidence interval.
# Columns and labels:
# [1] = folding stability dG unfold (combined trypsin and chymotrypsin); higher = more stable
# Method in brief: (§1)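 Designed mini-proteins with no cysteine and under 80 residues were kept only if AlphaFold2 dimer inter-PAE was above 15. In a PA-tagged cDNA display construct, they were digested with trypsin and chymotrypsin and then sequenced. K50 was inferred by Bayesian fitting of counts, and unfolding free energy was derived per protease or combined against a sequence-predicted unfolded-state K50 and a shared folded-state K50.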
# [2] = folding stability dG unfold from chymotrypsin proteolysis; higher = more stable
# Method in brief: as §1
# [3] = folding stability dG unfold from trypsin proteolysis; higher = more stable
# Method in brief: as §1
Sequence,folding stability dG unfold [1],folding stability dG unfold [2],folding stability dG unfold [3]
SAGGSAGGGYELRVTVYDPRTGKPVAEATFTATSPEEAEARFEEIRRALPPEYLVFAEIRPVPESAGGSAGG [r6_688_TrMRF],5.25 ± 0.11 kcal/mol,5.19 ± 0.13 kcal/mol,4.94 ± 0.38 kcal/mol
SAGGSAGGSAGGKDVRITVSPNNMRISIWKRDPNDGKWKPIGTIPMPPNDPDKALDQLKSAGGSAGGSAGGS [r10_275_TrROS],-0.446 ± 0.18 kcal/mol,-1.13 ± 0.91 kcal/mol,-0.216 ± 0.18 kcal/mol
SAGKEIIIPFRDIPPKYIKNQLKKFPPGKEIRIMFPGPEVADYLKEKGFPVRPERIKPITPDDMAKMMNSAG [r5_354_TrROS],-0.258 ± 0.28 kcal/mol,-0.186 ± 0.26 kcal/mol,-0.149 ± 0.4 kcal/mol
SAGFLGFGIEPHPNGWFKIEIMVMFPWPGGWFMFSIDITIPIVPIEPPPPPPVVEPKKENGKPKEWKYDSAG [r5_169_TrROS],2.74 ± 0.51 kcal/mol,3.38 ± 0.25 kcal/mol,1.91 ± 0.13 kcal/mol
SAGKKVKINIKLPEGAKVTKIEFDKKTKTIKITIYDKNGKKVLEMTFVYKDKNGKYKIVKKITVYLKKPSAG [r5_434_TrROS_Hall],4.09 ± 0.27 kcal/mol,4.19 ± 0.068 kcal/mol,2.97 ± 0.27 kcal/mol
SAGGSAGGSNWVEIDIPHDDGRDIKITMWPDGYMQIEYPNGKPVYEIPVPPNMSIDEIAERILSAGGSAGGS [r12_990_TrROS],0.624 ± 0.15 kcal/mol,0.498 ± 0.067 kcal/mol,0.641 ± 0.045 kcal/mol
SAGGSAGGSAEPPRYLVIELEVERSPEEIAEELRRRLGIERVEVEYDPETERLRVRVVVRLPSAGGSAGGSA [r18_275_TrROS_Hall],2.88 ± 0.11 kcal/mol,3.37 ± 0.047 kcal/mol,1.96 ± 0.048 kcal/mol
SLSEEELKKKLEELKKKLKPPKPKVKKVKVKIKNKETNEEIEEEVEIVETPDTVYIYNKKTGKLFKFKIKSA [r9_548_TrROS_Hall],1.73 ± 0.29 kcal/mol,1.95 ± 0.24 kcal/mol,0.935 ± 0.11 kcal/mol
SAGGSAGLEGVAKAILDKLPPNRKIAAFTVNEEEAKTATFTTPDGNEINITAAGDKIASIDIIDAESAGGSA [r15_175_TrMRF],0.0224 ± 0.1 kcal/mol,0.429 ± 0.19 kcal/mol,-1.09 ± 0.51 kcal/mol
SAGGSAGGSAMKIVEWNEETGELTIELPDGTKITLKVENGEITEVKVEPLPPVPPDLPELKSAGGSAGGSAG [r3_406_TrROS_Hall],2.24 ± 0.24 kcal/mol,2.45 ± 0.16 kcal/mol,0.537 ± 0.15 kcal/mol
SAGGSAGGSGPMDDPVPPRFSVETSVSPVALPPEFVAYVAAHPEEVDAVYTTTVVVLEEGPAGSAGGSAGGS [r12_196_JUSTAS],-0.449 ± 0.22 kcal/mol,-0.482 ± 0.79 kcal/mol,-0.559 ± 0.075 kcal/mol
SAGGKLLEELNVEKVEVVEVKEFSLPPLPLLVLLPTVTVTFKDGSKVKFKVLFLYDPSNPKPIVVAGSAGGS [r8_422_TrMRF],3.07 ± 0.16 kcal/mol,3.64 ± 0.048 kcal/mol,2.42 ± 0.1 kcal/mol
SAGGSAGGSATTTTAPDGSPVTVYPETGVARVYDPATGLWTRLTTRPDGVVEETPLPPGAPLESAGGSAGGS [r12_997_JUSTAS],0.307 ± 0.068 kcal/mol,0.6 ± 0.079 kcal/mol,-0.687 ± 0.23 kcal/mol
SAKITIFFPFDAVKEILDLLKENGVEVNIERHPGNPWYSATITRPDPNGKELPIEIMMFPDHGYVQITLSAG [r14_169_TrROS],2.57 ± 0.13 kcal/mol,2.62 ± 0.04 kcal/mol,2.65 ± 0.14 kcal/mol
SAGGSAGGSAGEEKETLTLVLPLEDMSPEEIAKLLEAAGYKVTVEEKDGLLVVKIERKPPSAGGSAGGSAGG [r11_707_TrROS_Hall],2.77 ± 0.065 kcal/mol,2.855 ± 0.017 kcal/mol,2.57 ± 0.08 kcal/mol
SAGGSAGGSKIEITVKTKEELLEAIRKLAEEKGYEIVSIKIEKLPDGTYKVTIEIRKNDPLLKSAGGSAGGS [r12_647_TrROS_Hall],2.38 ± 0.12 kcal/mol,2.79 ± 0.076 kcal/mol,1.35 ± 0.083 kcal/mol
SAGGMIKLEFENPDGMRIKIEIDRIHRFDPDNGYLIIPVKIEVEPPGKPREIDGTIILPPGMPPGQPLSAGG [r13_823_TrROS],1.43 ± 0.24 kcal/mol,0.811 ± 0.082 kcal/mol,2.04 ± 0.19 kcal/mol
SAGGSAGGSAGTLKLTLEVTVTRLYRLPDGSGSLVAETVRVRVEVELEVDELDEDGRLLLSAGGSAGGSAGG [r11_558_TrROS_Hall],3.18 ± 0.07 kcal/mol,3.269 ± 0.024 kcal/mol,3.08 ± 0.14 kcal/mol
SAGGSAGGSSKYIKFIIPANSPEAIEKAKELAEFIKKKYPGIKKIEVKYNPEKGYLEVIAEVESAGGSAGGS [r12_248_TrMRF],3.96 ± 0.17 kcal/mol,3.87 ± 0.048 kcal/mol,4.08 ± 0.28 kcal/mol
SAGGSAKWLPAEELADELADTLMQRHGYEIKNVDVEVIDPDEGYIRVNIEYEHPGGRHKHDIIIPVSAGGSA [r15_32_TrROS],0.662 ± 0.17 kcal/mol,0.851 ± 0.092 kcal/mol,0.1 ± 0.18 kcal/mol
SAGGSAGGSAGGSMKLNITVTLPDGTPITLTFPVDKIEEILKEAGLENISPELITKIEPISAGGSAGGSAGG [r7_745_JUSTAS],1.37 ± 0.051 kcal/mol,1.39 ± 0.026 kcal/mol,1.33 ± 0.034 kcal/mol

Sequence,folding stability dG unfold [1],folding stability dG unfold [2],folding stability dG unfold [3]
SMTTTTLPDGTTVTTLSDGTVKTVTHYPDSVVTETSPITYKLPDGREFTTKEEAEAYEKETGIPVSPALASA [r9_660_JUSTAS],0.4 ± 0.16 kcal/mol,0.255 ± 0.23 kcal/mol,0.62 ± 0.036 kcal/mol
SAGGSAGGAEIVEIEVRKEKRPDGKEVLTVKVKIKLENGEEIEVTVREGMTLEEALKKAKELLKSAGGSAGG [r6_986_TrROS_Hall],2.56 ± 0.14 kcal/mol,2.75 ± 0.12 kcal/mol,2.1 ± 0.086 kcal/mol
SAGGSAGGSAGGFNIEVVPGEPGWVIKIEFPDHPITAFVDPEDGKLWIYNPDNGMIFPLSAGGSAGGSAGGS [r10_434_TrROS],2.03 ± 0.077 kcal/mol,1.78 ± 0.084 kcal/mol,2.2 ± 0.042 kcal/mol
SAGGSAGGSKKKKVIEIKISEEELKKLGLTKEEIAKKLAEKFPNIKKNVRIEKNKDGTLKIYVSAGGSAGGS [r12_50_TrROS_Hall],1.18 ± 0.31 kcal/mol,1.27 ± 0.092 kcal/mol,1.22 ± 0.072 kcal/mol
SAGGSAGGSAGGAEEIARKLAEETGKKVTIRIRLPNGEVYEIELDEPLEEIEGAEIVEIESAGGSAGGSAGG [r7_998_TrROS_Hall],1.43 ± 0.061 kcal/mol,1.79 ± 0.036 kcal/mol,0.639 ± 0.018 kcal/mol
SAGGSAKIEEIASLPAEEIAEAFGLTVISATVERFEDGTVVLTVEIAPPLGPPIRVTFVFGVDPEKSAGGSA [r15_805_TrMRF],3.75 ± 0.058 kcal/mol,4.19 ± 0.061 kcal/mol,2.21 ± 0.045 kcal/mol
SAGGGMNEKVIEIEVTVTAPDGKVTTNPTTVVSNSLEEVKASIKASIPPNWSITVTVLKTKSLKEVLSSAGG [r13_513_JUSTAS],0.659 ± 0.095 kcal/mol,0.425 ± 0.081 kcal/mol,0.667 ± 0.03 kcal/mol
SGATVTVSKDGRTYTVTVSPNATVTVEVRDPTSTSTYTQTVPPGQPTTVSLPLPSDVSSSVTIASIDVGASA [r9_1152_JUSTAS],0.592 ± 0.072 kcal/mol,0.656 ± 0.088 kcal/mol,0.439 ± 0.025 kcal/mol
SAGGSASVKVEITEIKSSNPESSSNKIDIPVKVYDPETGKEVLSVEEIAKKIEEENPGKPVGYVPESAGGSA [r2_27_JUSTAS],0.281 ± 0.17 kcal/mol,0.0963 ± 0.17 kcal/mol,0.293 ± 0.093 kcal/mol
SAGKELTIEIVIERNGELITLTIKAKSEEELLEALKKLLEELGFEVEDIKIEKKDGEVIVTVTIRLPKKSAG [r5_946_TrROS_Hall],3.43 ± 0.15 kcal/mol,3.83 ± 0.081 kcal/mol,2.7 ± 0.13 kcal/mol
SAGGMYEIVDLLSVEPDPETGALTRTFLLRDPDSDRFLVAEVRIDPENPDRVEIRLYDEDGNLIAEFPSAGG [r13_658_TrMRF],3.93 ± 0.045 kcal/mol,4.148 ± 0.034 kcal/mol,3.36 ± 0.083 kcal/mol
SAGGSAGGSAGGPVFTPVGAGDEDTVTTETLPDGSPVLRYTVPGTGVVEVALPDGTLLAESAGGSAGGSAGG [r11_601_JUSTAS],-0.883 ± 0.22 kcal/mol,-1.66 ± 0.79 kcal/mol,-0.722 ± 0.073 kcal/mol
SAPPRTFIIPIERNPDGNVRLNIRMPGMEIEYEFPPGKDAEDALDKLSPHPGFNVELTEVDPNWIKITFSAG [r14_404_TrROS],1.28 ± 0.48 kcal/mol,1.75 ± 0.35 kcal/mol,1.3 ± 0.23 kcal/mol
SAGMVIKVKVKNKDGEELELVIEIPEEELPEELTEEELKELAKKLAEELAKEGKVEVVEVEIVEPEELSAGG [r19_27_TrROS_Hall],2.03 ± 0.25 kcal/mol,1.8 ± 0.13 kcal/mol,2.39 ± 0.26 kcal/mol
SAGGSAGGSAGGMVVRVTKNGTSTEIIVDSEEEAKELLKPLFPDDSEVEIEFVSEEELSSAGGSAGGSAGGS [r10_1167_JUSTAS],0.718 ± 0.12 kcal/mol,0.963 ± 0.065 kcal/mol,0.0397 ± 0.07 kcal/mol
SAGGSAGNPKPVVLEVEVVLDIPPENPDVLRAQAEAVARALAKPGLRVEVLDYDPDKAAFTIRITGSAGGSA [r15_563_TrMRF],1.89 ± 0.077 kcal/mol,1.84 ± 0.064 kcal/mol,1.71 ± 0.039 kcal/mol
SAGGSAGGSAGGGMSVKVTVKDPVNGTTSVYELSVPPGVSNVVINVKTPDNSTVTKVTLESAGGSAGGSAGG [r7_687_JUSTAS],1.11 ± 0.11 kcal/mol,1.28 ± 0.034 kcal/mol,0.754 ± 0.09 kcal/mol
PKWYEMNITINLPPDDPQKVKELKDALKKRNPDYKVKDIQFNPDDGQITINVWMPPQDQNRFQKAIKELLGS [r1_443_TrROS],2.12 ± 0.084 kcal/mol,2.31 ± 0.025 kcal/mol,1.86 ± 0.062 kcal/mol
SAGGSALENLEENEYIVKIEIEKKNKKKIEIVIAGKPEKIKEIEKELKKKGFKILKIEPKKVKDVLSAGGSA [r15_640_TrMRF],1.56 ± 0.1 kcal/mol,1.59 ± 0.066 kcal/mol,1.45 ± 0.054 kcal/mol
SAGGSAGGSAGGGSPIPTTTLTTVTYGSSSSLLSSAKGPSSVPYSLPSSLGSSVSTTVVGSAGGSAGGSAGG [r7_141_JUSTAS],-0.34 ± 0.38 kcal/mol,-0.13 ± 0.29 kcal/mol,-0.911 ± 0.3 kcal/mol
SAGMLNIPVDTPEKLLEIVKKLPGPVVVRSTSGTTVTVASLEELKEIAERGVPVELLLPEELPAEERAASAG [r5_677_JUSTAS],0.576 ± 0.067 kcal/mol,0.872 ± 0.041 kcal/mol,0.0824 ± 0.051 kcal/mol
